Data reported in US10669350B2, “Antigen-binding constructs that bind to and inhibit catalase and/or superoxide dismutase as well as pharmaceutical compositions containing them for tumor therapy” (priority 2015, dated 2020).
“Also recorded” adds a separate entry of the source. Each block holds one molecule with its values, some of them ahead of it.

Tests used:
[1] = test system: MKN-45 gastric carcinoma cells; assay: Standard preparation for autocrine ROS-controlled apoptosis induction in tumor cells (percentage of apoptotic cells); format: cell-based, human; details: for apoptosis induction in MKN-45 cells: increasing concentrations, 3-4 hours at 37° C., 5% CO2
Method: (§1) The experiments shown in FIG. 13-24 were carried out with a standard preparation for the apoptosis induction that is based on the method performed in Heinzelmann and Bauer 2010. The tumor cells used were taken from an optimally growing semi-sealed culture, centrifuged and placed in fresh medium. The test was performed in 96-well cell culture plates with 12 500 MKN-45 cells/100 μl medium or 10 000 SHEP cells/100 μl medium. MKN-45 cells grow in suspension, SHEP cells are adherent. The tests with SHEP cells were started as soon as the cells had grown on. By adding increasing concentrations of single domain VHH fragments that either inhibit catalase or SOD the protection of the tumor cells from their own ROS signaling was annulled so that based on the cell-owned extracellular superoxide anion production the NO/peroxynitrite signal path and the HOCl path (with MKN-45 cells) or in case of the SHEP cells only the NO/peroxynitrite path could start when the cells were incubated at 37° C. The analysis of the signal paths was carried out by the application of inhibitors of the NADPH oxidase (AEBSF), the HOCl scavenger taurine, the peroxynitrite scavenger FeTPPS and the singlet oxygen scavenger histidine. In some experiments for comparison instead of the single domain VHH fragments either recombinant Fab fragments or monoclonal antibodies were applied. This is indicated in the respective illustrations.
Double preparations were examined at the times shown in the text by means of phase contrast reverse microscopy for the percentage of apoptotic cells. Here, the classical apoptosis criteria described and documented in Heinzelmann and Bauer 2010 such as condensation of the nucleus, fragmentation of the nucleus, and membrane blebbing were used. Per single preparation at least 250 randomly selected cells were examined for the presence of apoptosis features. […]

[2] = biological target: T1, human catalase (Homo sapiens, UniProt P04040); assay: ELISA selection of clones binding to human catalase
T1 sequence (P04040 2-527 limits assumed): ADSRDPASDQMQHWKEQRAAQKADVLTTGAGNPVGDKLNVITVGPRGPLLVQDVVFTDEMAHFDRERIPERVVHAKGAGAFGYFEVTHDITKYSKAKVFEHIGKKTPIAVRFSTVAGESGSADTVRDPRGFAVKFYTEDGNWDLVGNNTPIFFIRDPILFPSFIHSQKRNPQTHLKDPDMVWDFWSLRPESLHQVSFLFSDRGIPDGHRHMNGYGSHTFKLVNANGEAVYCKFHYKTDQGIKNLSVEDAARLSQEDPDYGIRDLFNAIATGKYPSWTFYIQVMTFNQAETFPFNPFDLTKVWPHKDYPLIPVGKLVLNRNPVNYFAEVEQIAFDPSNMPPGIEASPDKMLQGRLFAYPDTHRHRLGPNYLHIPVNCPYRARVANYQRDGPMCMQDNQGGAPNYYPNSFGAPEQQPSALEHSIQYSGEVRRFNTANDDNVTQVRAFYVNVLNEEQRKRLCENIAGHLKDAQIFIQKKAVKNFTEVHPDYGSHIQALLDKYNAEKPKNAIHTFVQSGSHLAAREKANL
Source text: […] […] In a second run, by employing the cell culture system described by Heinzelmann and Bauer (Heinzelmann S. and Bauer G. Multiple protective functions of catalase against intercellular apoptosis-inducing ROS signaling of human tumor cells, Biol. Chem. 391, 675-693, 2010) it was checked which one of the single domain VHH fragments binding to catalase actually results in an inhibition of the catalase, what is expressed as ROS-dependent apoptosis induction in the cells. […] The clones underlying the single domain VHH fragments were sequenced by standard methods and the amino acid sequence was determined therefrom.

[3] = biological target: T1, human catalase; assay: Check for inhibition (neutralization) of catalase, expressed as ROS-dependent apoptosis induction in cell culture system; format: cell-based; design: catalase-neutralizing single domain VHH fragments only neutralize the membranous catalase of tumor cells; endogenous in cells; host or cells: MKN-45 human gastric carcinoma cells
Source text: For the determination of the neutralizing effect of single domain VHH or Fab fragments directed against catalase a test system is suitable that is based on the apoptosis-inducing effect of H2O2 and the degradation of H2O2 by catalase. Here, as the cellular test system both non-malignant and malignant cells can be employed. It is only required that apoptosis induction is quantitatively determinable in the selected cell system. As the H2O2 source, H2O2-generating glucose oxidase (GOX) is preferred over the direct addition of H2O2, because the continuous production of H2O2 by GOX (by using glucose from the culture medium of the cells) allows a very precise adjustment of the H2O2 flux. The test system is based on the inhibition of the apoptosis induction by GOX mediated by catalase and the restoration of the apoptosis induction by catalase-neutralizing single domain VHH or Fab fragments. […] For that, in general depending on the cell system, GOX concentrations between 0.1 and 40 mU/ml are required. In a second step, the concentration of human catalase is determined that is just sufficient to abolish the effect achieved by GOX. […] After successful determination of the suitable concentrations of GOX and catalase then the actual experiment for the determination of the catalase-neutralizing effect of single domain VHH or Fab fragments can be performed. For that, the selected catalase concentration is pre-incubated for 20 minutes with selected concentrations of the single domain VHH or Fab fragments to be tested. Subsequently, said mixture together with the concentration of GOX determined to be suitable is added to the cells and apoptosis induction is measured. A reliable neutralizing effect of the single domain VHH or Fab fragments is obtained if the inhibiting effect of the catalase on the GOX-mediated apoptosis induction was abolished by at least 90%, i.e. if 90% of the apoptosis induction value is achieved that is shown in control preparations without addition of catalase. If there is achieved an abolition of the inhibiting effect of catalase of at least 50% there may be assumed a significant inhibiting effect of the tested single domain VHH or Fab fragment. […]
[…] In a second run, by employing the cell culture system described by Heinzelmann and Bauer (Heinzelmann S. and Bauer G. Multiple protective functions of catalase against intercellular apoptosis-inducing ROS signaling of human tumor cells, Biol. Chem. 391, 675-693, 2010) it was checked which one of the single domain VHH fragments binding to catalase actually results in an inhibition of the catalase, what is expressed as ROS-dependent apoptosis induction in the cells. […] The clones underlying the single domain VHH fragments were sequenced by standard methods and the amino acid sequence was determined therefrom.

[4] = test system: human neuroblastoma line SHEP; assay: Standard preparation for apoptosis induction in SHEP cells (percentage of apoptotic cells); format: cell-based
Method: as §1
Double preparations were examined at the times shown in the text by means of phase contrast reverse microscopy for the percentage of apoptotic cells. Here, the classical apoptosis criteria described and documented in Heinzelmann and Bauer 2010 such as condensation of the nucleus, fragmentation of the nucleus, and membrane blebbing were used. Per single preparation at least 250 randomly selected cells were examined for the presence of apoptosis features.
10 000 cells of the human neuroblastoma line SHEP per 100 μl medium were mixed with the given concentrations of the catalase-neutralizing single domain VHH fragment aCATcb0972, the SOD-neutralizing single domain VHH fragment aSOD0989, the SOD-binding but not neutralizing single domain VHH fragment aSODcb991 and the hybrid molecule aCATaSOD and incubated for 5 hours at 37° C., 5% CO2, before percentages of apoptotic cells were determined.
10 000 cells of the human neuroblastoma line SHEP per 100 μl medium were mixed with the given concentrations of the SOD-neutralizing single domain VHH fragment aSOD0989. Parallel preparations received 20 μM or 100 μM of the NO donor sodium nitroprusside or were incubated without a further additive. After 5 hours at 37° C., 5% CO2 the percentages of apoptotic cells were determined.

[5] = Table 2, FIG. 20 experiment, 3.5 hours

Molecule: CC(=O)O[C@H]1C(=O)[C@@]2(C)[C@H]([C@H](OC(=O)c3ccccc3)[C@]3(O)C[C@H](OC(=O)[C@H](O)[C@@H](NC(=O)c4ccccc4)c4ccccc4)C(C)=C1C3(C)C)[C@]1(OC(C)=O)CO[C@@H]1C[C@@H]2O [taxol, reference compound]
displacement of the required taxol concentration by neutralizing single domain VHH fragments ([1]; 4 hours): less than a thousandth
optimum effect concentration of taxol alone ([1]; 4 hours): 1100 ng/mL
apoptosis induction in MKN-45 cells [1]: induces apoptosis in the tumor cells in a concentration-dependent manner

B1: aCATcb0973: single domain VHH fragment binding to human catalase, but not neutralizing; SEQ ID NO: 11 (protein)
VHH: MAEVQLVESGGGLVQPGGSLRLSCAVSGFIFNTYSMRWGRQAPGKGLEWVSSISTGGYSTYADSVKGRFTISRDNAKNLVYLQMNSLKPEDTAVYYCGWGAFVRGERPQGQGTQVTVSSKKKHHHHHH
modifications: catalase binding
binding to human catalase [2]: bind to human catalase
neutralization (inhibition) of human catalase [3]: do not neutralize it

B3: monoclonal aCAT: neutralizing conventional monoclonal antibody against catalase (Sigma) as a control (protein)
VHH: MAQVQLVESGGGLVQAGGSLRLSCAASERTFNTYGMGWFRQAPGKEREFVATISWSGDSTYYADSVKGRFTISRDNAKNTMYLQMNSLKPEDTAVYYCNANSEYGDSYWGQGTQVTVSSKKKHHHHHH
optimum effect concentration (text, FIG. 20) ([1]; 3.5 hours): 111 ng/mL
relation to opt. conc. single domain Fab ([1]; Table 1, concentration basis, versus the corresponding single domain VHH): 277 500
optimum conc. ([1]; Table 1, concentration necessary for optimum apoptosis induction, taken from FIGS. 13A, 13B, 15A, 15B, 20): 111 ng/mL
relation (molar basis) ([1]; Table 1, versus the corresponding single domain VHH): 46 250
optimum conc. [1, 5]: 111 ng/mL
relation to opt. conc. hybrid Fab ([1]; Table 2, concentration basis, versus hybrid aCATaSOD): 4.6 × 10^8
relation (molar basis) ([1]; Table 2, versus hybrid aCATaSOD): 1.54 × 10^8

B4: aCATaSOD: bispecific hybrid single domain VHH fragment of cb 0972 and cb 0989 connected via a linker; SEQ ID NO: 17 (protein)
VHH: MAQVQLVESGGGLVQAGGSLRLSCAASERTFNTYGMGWFRQAPGKEREFVATISWSGDSTYYADSVKGRFTISRDNAKNTMYLQMNSLKPEDTAVYYCNANSEYGDSYWGQGTQVTVSSGGGGSGGGGSGGGGSAQVQLVESGGGLVQSGGSLTLSCTASGFTISNYPMTWVRQAPGKGLEWVSRINSGGDRTLYADSVKGRFTVSRDNARNTMYLQMNNLKPEDTGLYFCADSGAGWRYWGQGTQVTVSSKKKHHHHHH
modifications: bispecific
efficacy compared with single domain VHH fragments directed against one target structure ([4]; 5 hours): much more effective
apoptosis induction in SHEP cells ([4]; 5 hours at 37° C., 5% CO2): can induce concentration-dependent apoptosis
apoptosis induction after siRNA-mediated knockdown of FAS receptor or caspase-8 ([1]; 24 nM siRNA, four hours): does not require the FAS receptor and its downstream caspase-8; also recorded: prevents the supra-optimum drop of the apoptosis induction curve
apoptosis induction after siRNA-mediated knockdown of NOX1, iNOS2 or caspase-9 ([1]; 24 nM siRNA, four hours): completely prevents the apoptosis induction
apoptosis induction in the presence of peroxynitrite scavenger FeTPPS ([1]; 25 μM FeTPPS): complete inhibition by FeTPPS
apoptosis induction in the presence of NOX1 inhibitor AEBSF ([1]; 100 μM AEBSF): completely prevented
apoptosis induction in the presence of singlet oxygen scavenger histidine ([1]; 2 mM histidine): attenuating effect on the right-side drop of the optimum curve
apoptosis induction in the presence of HOCl scavenger taurine ([1]; 50 mM taurine): no inhibition by taurine
optimum conc. [1, 5]: 2.4e-07 ng/mL
apoptosis induction in MKN-45 cells [1]: gradually superior over the reverse arrangement
ROS signaling path induced ([1]; inhibitor analysis): exclusively the NO/peroxynitrite path

The next lines start with the values.

binding to human catalase [2]: bind to human catalase
neutralization (inhibition) of human catalase [3]: do not neutralize it
B2: aCATcb0975: single domain VHH fragment binding to human catalase, but not neutralizing; SEQ ID NO: 13 (protein)
VHH: MAQVQLVESGGGLVQPGGSLRLSCAASASIFSIYVMAWYRQAPGKQRELVATVTSGGATNYANSVKGRFTISRDNAKNTMDLQMNSLKPEDTAVYYCNAEDYYDYGLSRSKIYWGQGTQVTVSSKKKHHHHHH
modifications: catalase binding

binding to human catalase [2]: bind to human catalase
neutralization (inhibition) of human catalase [3]: neutralize it
B5: aCATcb0974: single domain VHH fragment that binds to and neutralizes human catalase; SEQ ID NO: 12 (protein)
VHH: MAQVQLVESGGGLVQPGGSLRLSCAASGSIFSIASMGWYRQAPGKQRDLVATITSDGSTKYADSVKGRFTISRDNAKNTMYLQMNSVKPEDAAVYYCNADADDLEPGSYDYDYWGQGTQVTVSSKKKHHHHHH
modifications: catalase binding
